Key:
[1] = molecular target: DRB1*07:01 (Homo sapiens, UniProt P01903+P01911, A100R/A102G/A103Q/D57E/D86V/E43K/F76Y/K127E/L162R/M171V/P40G/Q125H/Q99D/R33Q/R42Y/R54Q/S133A/S66F/T210M/V115G/Y107V/Y59L/Y89S); format: cell-based; conditions: for MCR2 construct expression (presentation): 12mer peptides in DRB1*07:01-MCR2
[2] = test system: TCRs from the BAL of COVID-19 patients; format: cell-based, human

Row | Substance | MCR2 construct expression (presentation) [1] | recognition by TCR007 (NFAT activation) [2] | peptide presentation by DRB1*07:01 (FACS staining, MEDi-MA scores) ([1]; mutated versus WT peptides)
1 | S714-725(T716I): Spike 12mer peptide with T716I cloned into DRB1*07:01-MCR2 | expressed well | – | –
2 | S714-725: Spike 12mer peptide cloned into DRB1*07:01-MCR2 | expressed well | not | –
3 | S714-728 (T716I): Spike 15mer 714-728 with the T716I mutation of the B1.1.7 variant | – | not recognized | presented as well as the WT

Source: patent US20220033460A1, “IDENTIFICATION AND USE OF T CELL EPITOPES IN DESIGNING DIAGNOSTIC AND THERAPEUTIC APPROACHES FOR COVID-19” (priority 2020, published 2022)
